This assay concerns the target T1, SH3 domain-containing YSC84-like 1 (SH3YL1), antigen of the antibodies (UniProt Q96HL8 1-342).
T1 chain: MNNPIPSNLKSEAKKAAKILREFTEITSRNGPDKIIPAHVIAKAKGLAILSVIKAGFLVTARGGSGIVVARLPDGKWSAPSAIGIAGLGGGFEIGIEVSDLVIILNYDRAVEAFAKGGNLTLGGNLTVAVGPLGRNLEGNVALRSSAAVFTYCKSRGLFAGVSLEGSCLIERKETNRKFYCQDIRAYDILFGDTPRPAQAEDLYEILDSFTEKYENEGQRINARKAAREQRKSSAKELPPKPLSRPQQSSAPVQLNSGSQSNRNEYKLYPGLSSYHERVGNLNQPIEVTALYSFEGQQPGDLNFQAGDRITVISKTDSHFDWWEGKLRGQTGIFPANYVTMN

As a reminder, the Kd is the constant that tells how readily two partners part at equilibrium. A high value points to a looser complex.

B1: S4A antibody (antibody, V domains shown)
VH: EVQLLESGGGLVQPGGSLRLSCAASGFTFSSYSMNWVRQAPGKGLEWVSWISPNSGSTDYAQKFQGRFTISRDNSKNTLYLQMNSLRAEDTAVYYCARTPPGTPFDYWGQGTLVTVSS
VL: QSVLTQPPSASGTPGQRVTISCSGNNIGSKSVHWYQQLPGTAPRLLIYSTSNKHSGVPDRFSGSKSGTSASLAISGLHSEDEADYYCSSYTSSGTRVFGGGTKLTVLG
In turn, B1 displayed a Kd of 2.06 nM.

B2: 3E11 antibody (antibody, V domains shown)
VH: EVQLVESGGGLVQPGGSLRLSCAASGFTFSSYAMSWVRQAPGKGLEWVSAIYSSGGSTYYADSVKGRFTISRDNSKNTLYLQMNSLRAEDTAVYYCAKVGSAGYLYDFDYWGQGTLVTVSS
VL: DIQMTQSPSSLSASVGDRVTITCRASQDIANYLNWYQQKPGKAPKLLIYATSTLQSGVPSRFSGSGSGTDFTLTISSLQPEDFATYYCQQSYSSPWTFGQGTKVEIKR
For B2, the affinity, expressed as Kd, was 3.56 nM.

B3: 5D5 antibody (antibody, V domains shown)
VH: EVQLVESGGGLVQPGGSLRLSCAASGFTFSDYAMSWVRQAPGKGLEWVSSISSTGSTTYYADSVKGRFTISRDNSKNTLYLQMNSLRAEDTAVYYCAKVLYEYLYFDYWGQGTLVTVSS
VL: DIQMTQSPSSLSASVGDRVTITCRASQDIRNWLNWYQQKPGKAPKLLIYAASSLQSGVPSRFSGSGSGTDFTLTISSLQPEDFATYYCQQSYSSPWTFGQGTKVEIKR
As to B3, the Kd was 5.49 nM.

B4: 4G4 antibody (antibody, V domains shown)
VH: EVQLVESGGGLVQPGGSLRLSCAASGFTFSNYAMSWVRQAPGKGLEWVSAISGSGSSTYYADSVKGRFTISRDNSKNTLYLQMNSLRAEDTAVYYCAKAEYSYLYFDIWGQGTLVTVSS
VL: DIQMTQSPSSLSASVGDRVTITCRASQSISNWLNWYQQKPGKAPKLLIYAASRLQSGVPSRFSGSGSGTDFTLTISSLQPEDFATYYCQQSYSSPWTFGQGTKVEIKR
B4 returned a dissociation constant Kd of 2.96 nM. This Kd is about 1.9-fold lower than that of the molecule before.

B5: 4H7 antibody (antibody, V domains shown)
VH: EVQLVESGGGLVQPGGSLRLSCAASGFTFSTYGMSWVRQAPGKGLEWVSAISSSGGSIYYADSVKGRFTISRDNSKNTLYLQMNSLRAEDTAVYYCAKVSYPGLAFDIWGQGTLVTVSS
VL: DIQMTQSPSSLSASVGDRVTITCRASQTISNYLNWYQQKPGKAPKLLIYATSSLQSGVPSRFSGSGSGTDFTLTISSLQPEDFATYYCQQSYSSPWTFGQGTKVEIKR
Regarding B5, binding was put at a Kd of 3.43 nM.

B6: 4F9 antibody (antibody, V domains shown)
VH: EVQLVESGGGLVQPGGSLRLSCAASGFTFSDYAMSWVRQAPGKGLEWVSAIKSSGSSTYYADSVKGRFTISRDNSKNTLYLQMNSLRAEDTAVYYCAKAEYEYLAFDIWGQGTLVTVSS
VL: DIQMTQSPSSLSASVGDRVTITCRASQDISSWLNWYQQKPGKAPKLLIYATSTLQSGVPSRFSGSGSGTDFTLTISSLQPEDFATYYCQQSYSSPWTFGQGTKVEIKR
In turn, B6 displayed a Kd of 3.63 nM.

B7: 4F10 antibody (antibody, V domains shown)
VH: EVQLVESGGGLVQPGGSLRLSCAASGFTFSDYAMSWVRQAPGKGLEWVSAIYSTGSSTYYADSVKGRFTISRDNSKNTLYLQMNSLRAEDTAVYYCAKVGWYLFDYWGQGTLVTVSS
VL: DIQMTQSPSSLSASVGDRVTITCRASQSISRYLNWYQQKPGKAPKLLIYATSRLQSGVPSRFSGSGSGTDFTLTISSLQPEDFATYYCQQSYSSPWTFGQGTKVEIKR
For B7, the Kd came to 0.404 nM.

The values above are taken from patent publication US20260109755A1 (published 2026).
